Biological target: Venezuelan equine encephalitis virus (VEEV) virus-like particles (Venezuelan equine encephalitis virus, …, UniProt P09592 813-1254)
Test: SPR

B1: LDLRAD3(D1), cleaved monomeric ectodomain of mouse low-density lipoprotein receptor class A domain-containing 3, domain 1 (domain or fragment)
chain: not shown
Kd: 58.2 nM
